The values that follow come from article PMC6728052 (PLoS Computational Biology, 2019).

Assay [1] deals with human Vascular-Endothelial Growth Factor (VEGF) (Homo sapiens, UniProt P15692-4). In words: SPR.
The target in the next assay is hen egg-white lysozyme (Gallus gallus, UniProt P00698). Briefly: SPR. For orientation: Surface plasmon resonance follows binding to a sensor surface in real time, without labels.
hen egg-white lysozyme, sequence (P00698 19-147): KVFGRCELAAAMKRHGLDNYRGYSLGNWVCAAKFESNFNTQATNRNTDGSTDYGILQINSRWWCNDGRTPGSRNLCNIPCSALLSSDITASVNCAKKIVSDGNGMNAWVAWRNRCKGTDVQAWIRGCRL

B1: G6^des1, Fab (Fab, V domains shown)
VH: EVQLVESGGGLVQPGGSLRLSCAASGFTISDYWIHWVRQAPGKGLEWVAGITPAGGYTHYADSVKGRFTISADTSKNTAYLQMNSLRAEDTAVYFCARFVFFLPYAMDYWGQGTLVTVSS
VL: DIQMTQSPSSLSASVGDRVTITCRASQDVSTAVAWYQQKPGKPPKLLIFSASFLFSGVPSRFSGSGSGTDFTLTISSLQPEDFATYYCLQSYTVTPTFGPGTKVEIK
For orientation: kon means the rate constant with which the complex forms. A lower kon goes with slower complex formation. In the case of B1, the kon in assay [1] worked out at 327000 M⁻¹ s⁻¹.

B2: G6^des13, Fab (Fab, V domains shown)
VH: EVQLVESGGGLVQPGGSLRLSCAASGFTISDYWIHWVRQAPGKGLEWVAGITPAGGYTHYADSVKGRFTISADTSKNTAYLQMNSLRAEDTAVYFCARFVFFLPYAMDYWGQGTLVTVSS
VL: DIQMTQSPSSLSASVGDRVTITCRASQDVSTAVAWYQQKPGKPPKLLIYSASFLYSGVPSRFSGSGSGTDFTLTISSLQPEDFATYYCLQSYTDTPTFGQGTKVEIK
For orientation: Kd means the free concentration of one partner at which half of the binding sites on the other are occupied at equilibrium, for simple one-to-one binding. Higher therefore signals weaker binding. As usually defined, the koff is the first-order rate constant of dissociation. Consider B2, for which, in assay [1], the Kd was 0.06 nM, the dissociation rate constant (koff) was determined as 3.2e-05 s⁻¹ and the kon came to 530000 M⁻¹ s⁻¹.

B3: D44.1^des, Fab (Fab, V domains shown)
VH: QVQLQESGAEVMKPGASVKISCKATGYTFSTYWIEWMKQRPGGGLEYIGEILPGSGSTYYNEKFKGKATFTADTSSNTAYMQLSSLTSEDSAVYYCARGDGYYKYWGQGTTLTVSS
VL: DIELTQSPATLSVTPGDSVSLSCRASQSISNNLHWYQQKSHEPPRLLIKYVSQSVSGIPSRFSGSGSGTDFTLSINSVETEDFGMYFCGQSNSWPRTFGGGTKLEIK
In the assay with hen egg-white lysozyme, B3 returned a Kd of 15 nM, a koff of 0.00079 s⁻¹ and a kon of 53000 M⁻¹ s⁻¹.
